# Laboratory results published in paper PMC5364480.
# Assays:
# FLC [1] = molecular target: FLC (UniProt Q9S7Q7); experiment: yeast two-hybrid; conditions: p>0.05 (open symbol); parent: 1; read off a plot
# SOC1 [2] = molecular target: SOC1 (UniProt O64645); experiment: yeast two-hybrid; conditions: p>0.05 (open symbol); parent: 1; read off a plot
# SOC1 [3] = molecular target: SOC1 (UniProt O64645); experiment: two-hybrid; pGADT7 AD and pGBKT7 BD vectors co-transformed into yeast Y187; quantitative β-galactosidase assay with ONPG (Miller units)
# …3 (Arabidopsis) = …3 (Arabidopsis) (UniProt O22456); experiment: as above
# FLC [4] = molecular target: FLC (UniProt Q9S7Q7); experiment: as above
# FLC, SEP3 and SOC1 = experiment: as above
# …3 (Arabidopsis), sequence (O22456 whole entry): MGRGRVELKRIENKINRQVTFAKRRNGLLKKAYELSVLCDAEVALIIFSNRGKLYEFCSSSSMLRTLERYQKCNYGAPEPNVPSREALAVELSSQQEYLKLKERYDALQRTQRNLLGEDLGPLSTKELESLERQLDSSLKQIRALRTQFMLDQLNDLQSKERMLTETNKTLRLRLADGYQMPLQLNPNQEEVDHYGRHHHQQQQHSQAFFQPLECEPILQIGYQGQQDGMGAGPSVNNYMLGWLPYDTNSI
# FLC, sequence (Q9S7Q7 whole entry): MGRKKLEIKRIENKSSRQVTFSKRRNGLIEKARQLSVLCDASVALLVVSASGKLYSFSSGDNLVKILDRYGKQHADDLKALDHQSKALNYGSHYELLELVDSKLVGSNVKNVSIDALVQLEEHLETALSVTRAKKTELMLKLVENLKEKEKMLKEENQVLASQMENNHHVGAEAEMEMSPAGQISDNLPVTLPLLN
# SOC1, sequence (O64645 whole entry): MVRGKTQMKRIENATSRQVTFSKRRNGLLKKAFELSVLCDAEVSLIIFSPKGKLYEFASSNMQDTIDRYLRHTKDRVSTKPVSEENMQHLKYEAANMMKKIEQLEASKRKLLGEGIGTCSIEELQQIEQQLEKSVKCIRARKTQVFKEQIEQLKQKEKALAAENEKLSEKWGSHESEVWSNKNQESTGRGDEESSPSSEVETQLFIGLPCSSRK
substance,measurement,setting,value
SHORT … PHASE (from UniProt Q9FVC1) ins220Y-221D,ratio to parent,FLC [1],1.1
"SHORT … PHASE, Q9FVC1 ins80M",ratio to parent,SOC1 [2],0.94
SVP C-domain insertion 220–221 YD (from UniProt Q9FVC1 1-240) (natural protein),percent decrease of binding against wild-type SVP,SOC1 [3],28%
same,percent decrease of binding against wild-type SVP,…3 (Arabidopsis),22%
SVP Del89V (from UniProt Q9FVC1 1-240) (natural protein),percent decrease of binding against wild-type SVP,FLC [4],44%
same,percent decrease of binding against wild-type SVP,SOC1 [3],86%
same,percent increase of interaction strength against wild-type SVP,…3 (Arabidopsis),6%
SVP Q127R (from UniProt Q9FVC1 1-240) (natural protein),percent increase of binding against wild-type SVP,FLC [4],40%
same,percent increase of binding against wild-type SVP,SOC1 [3],40%
same,percent decrease of binding against wild-type SVP,…3 (Arabidopsis),73%
SVP ins80M (from UniProt Q9FVC1 1-240) (natural protein),percent decrease of binding against wild-type SVP,FLC [4],64%
same,percent decrease of binding against wild-type SVP,…3 (Arabidopsis),64%
SVP with the unique C-domain insertion 176–196 deleted (from UniProt Q9FVC1 1-240) (natural protein),percent decrease of binding against wild-type SVP,"FLC, SEP3 and SOC1",84 to 95%
